Source: patent US11981714B2, “CCR5 and CD4 siRNA-targeted phospholipid nanosomes therapeutics for treatment of HIV-1 and other diseases” (priority 2020, dated 2024)

Tested on: HIV-1 RF, NIH Cat #2804
Assay: Infectivity assay by BFUs on MAGI P4/R5 cells with and without lipofectamine (RNA-I-61)
Type: cell-based
Details: naked (unencapsulated), Presence of Lipofectamine
Protocol: A knockdown study (RNA-I-61) of the 8 nanoencapsulated and the corresponding unencapsulated (naked) siRNA preparations along with two controls described in the previous experiments was performed using freshly reconstituted materials with HIV-1 RF, NIH Cat #2804, diluted to contain ˜100 Blue Focus forming Units (BFUs) per dose of inoculum. […] The objective of this experiment was to test a range of concentrations of the inhibitors to determine the ID50 for each preparation based on the siRNA content. Since the nanosomal materials were freshly reconstituted, they were recharacterized.
The reconstituted samples as well as the naked siRNA preparations were tested for virus infection inhibitory activity. The inhibition of infectivity was measured by counting the number of blue foci due to the induced β-galactosidase activity in the host MAGI P4/R5 cells by the infecting HIV. […] The number of BFUs for each treatment at various dilutions were used to calculate the % inhibition from the corresponding dilution for the Negative_siRNA samples. The inhibitor activity was also quantified by measuring the p24 antigen concentration in each of the wells.
Infectivity Assay by BFUs: The percent inhibitions obtained with various Nanosomal_siRNA formulations versus Negative_siRNA formulations in the presence of lipofectamine are listed in Table 12.
50% Inhibitory Dose (ID50) Values: The data from RNA quantification using gel analysis and the infectivity results were used to plot dose response curves and calculate the ID50 (a.k.a. Inhibitory Concentration that results in 50% inhibition, [IC50]) values.

B1: RANTES: CC chemokine, molecular weight 7,900, natural ligand of CCR5; unencapsulated in Table 13 (protein, UniProt P13501 24-91, looked up)
C-C motif chemokine 5: SPYSSDTTPCCFAYIARPLPRAHIKEYFYTSGKCSNPAVVFVTRKNRQVCANPEKKWVREYINSLEMS
- Inhibition of BFUs by Naked_siRNA vs Negative_siRNA (Treatment Dilution 1): 0%
- Inhibition of BFUs by Naked_siRNA vs Negative_siRNA (Treatment Dilution 5): 34%
- Inhibition of BFUs by Naked_siRNA vs Negative_siRNA (Treatment Dilution 15): 18%
- Inhibition of BFUs by Naked_siRNA vs Negative_siRNA (Treatment Dilution 45): 0%
- Inhibition of BFUs by Naked_siRNA vs Negative_siRNA (Treatment Dilution 135): 0%
